From publication doi:10.1101/2022.12.26.521971 come the findings set out here.

The target of experiment [1] is wild-type human Neurotensin Receptor 1 (hNTSR1) (human) (UniProt P30989). As to the kind of experiment: radioligand binding.
The target in experiment [2] is wild-type rat Neurotensin Receptor 1 (rNTSR1) (rat) (UniProt P20789). Put plainly: radioligand binding.

Values joined by “and” are separate entries in the source; they are usually repeats but may differ in a detail not shown here. Equal values may be shown once.

wild-type rat Neurotensin Receptor 1 (rNTSR1) (rat), sequence (P20789 whole entry): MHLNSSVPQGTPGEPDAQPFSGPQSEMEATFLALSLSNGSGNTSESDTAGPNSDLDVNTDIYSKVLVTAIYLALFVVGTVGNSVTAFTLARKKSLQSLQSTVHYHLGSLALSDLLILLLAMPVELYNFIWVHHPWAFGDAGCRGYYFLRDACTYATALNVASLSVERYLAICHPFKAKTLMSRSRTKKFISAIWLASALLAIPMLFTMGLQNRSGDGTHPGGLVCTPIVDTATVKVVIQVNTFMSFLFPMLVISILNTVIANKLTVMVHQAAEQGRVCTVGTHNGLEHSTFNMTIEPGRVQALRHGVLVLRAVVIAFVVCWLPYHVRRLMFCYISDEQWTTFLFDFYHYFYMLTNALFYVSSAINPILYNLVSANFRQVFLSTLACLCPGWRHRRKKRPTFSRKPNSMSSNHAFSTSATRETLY
wild-type human Neurotensin Receptor 1 (hNTSR1) (human), sequence (P30989 whole entry): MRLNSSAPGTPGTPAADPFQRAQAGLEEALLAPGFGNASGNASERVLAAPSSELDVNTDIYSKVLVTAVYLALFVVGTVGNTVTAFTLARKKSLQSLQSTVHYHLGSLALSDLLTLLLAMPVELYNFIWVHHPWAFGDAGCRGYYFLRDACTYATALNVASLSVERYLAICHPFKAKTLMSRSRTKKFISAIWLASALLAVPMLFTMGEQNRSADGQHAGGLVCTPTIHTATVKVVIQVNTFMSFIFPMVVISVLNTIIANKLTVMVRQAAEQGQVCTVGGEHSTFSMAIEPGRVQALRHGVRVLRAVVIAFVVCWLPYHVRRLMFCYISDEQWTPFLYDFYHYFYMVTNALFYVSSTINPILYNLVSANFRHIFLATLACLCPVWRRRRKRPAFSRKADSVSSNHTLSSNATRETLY

A word on the Kd: it is the concentration at which binding is half-saturated. Read a low Kd as tighter binding. On to [3H]Neurotensin (peptide), for which the Kd in experiment [1] was 2.14 nM and 0.92 nM; in experiment [2], 2.3 nM and 0.67 nM.
